# Data published in patent US20080194522A1, “Development of Fluorogenic Substrates For Monoamine Oxidases (Mao-A and Mao-B)” (priority 2004, published 2008).
# Read-outs that look alike come from different tables or passages of the source.
# B1: MAO-A (Homo sapiens) (protein)
# chain: MENQEKASIAGHMFDVVVIGGGISGLSAAKLLTEYGVSVLVLEARDRVGGRTYTIRNEHVDYVDVGGAYVGPTQNRILRLSKELGIETYKVNVSERLVQYVKGKTYPFRGAFPPVWNPIAYLDYNNLWRTIDNMGKEIPTDAPWEAQHADKWDKMTMKELIDKICWTKTARRFAYLFVNINVTSEPHEVSALWFLWYVKQCGGTTRIFSVTNGGQERKFVGGSGQVSERIMDLLGDQVKLNHPVTHVDQSSDNIIIETLNHEHYECKYVINAIPPTLTAKIHFRPELPAERNQLIQRLPMGAVIKCMMYYKEAFWKKKDYCGCMIIEDEDAPISITLDDTKPDGSLPAIMGFILARKADRLAKLHKEIRKKKICELYAKVLGSQEALHPVHYEEKNWCEEQYSGGCYTAYFPPGIMTQYGRVIRQPVGRIFFAGTETATKWSGYMEGAVEAGERAAREVLNGLGKVTEKDIWVQEPESKDVPAVEITHTFWERNLPSVSGLLKIIGFSTSVTALGFVLYKYKLLPRS
# B2: MAO-B (Bos taurus) (protein)
# chain: MSSKCDVVVVGGGISGMAAAKLLHDSGLNVIVLEARDRVGGRTYTLRNQKVKYVDLGGSYVGPTQNHILRLSKELGLETYKVNEVERLIHHTKGKSYPFRGSFPSVWNPITYLDHNNLWRTMDDMGREIPSDAPWKAPLAEQWDLMTMKELLDKICWTESSKQLAILFVNLCVTAEIHEVSALWFLWYVKQCGGTTRIFSTSNGGQERKFVGGSGQVSERIMDLLGDRVKLERPVIHIDQTGENVLVETLNHELYEAKYVISAVPPVLGMKIHFNPPLPMMRNQLITRVPLGSVIKSIVYYKEPFWRNMDYCGSMIIEGEEAPVAYALDDTKPDGSYPAIIGFILAHKARKLARLTKEERLKKLCDLYAKVLGSQEALHPVHYEEKNWCEEQYSGGCYTSYFPPGIMTQYGRVLRQPVGRIYFAGTETATHWSGYMEGAVEAGERAAREILHAMGKIPEDEIWLPEPESVDVPAKPITTTFLQRHLPSVPGLLKLIGLTTIFSATALGFLAHKRGLLVRI
# Substrate: NCCc1cc2oc(=O)ccc2cc1N
# Assay: purified protein, by the assay type
Protein,Km,Km (pH 7.4)
B1,30.9 ± 1.8 µM,31 µM
B2,510 ± 40 µM,13 µM
